From the DeepSol protein solubility set

experiment: soluble on expression in E. coli; label from the status in PepcDB or PDB records

Sequence	soluble on expression in E. coli
MNPDLRKERASATFNPELITHILDGSPENTRRRREIENLILNDPDFQHEDYNFLTRSQRYEVAVKKSATMVKKMREYGISDPEEIMWFKNSVHRGHPEPLDLHLGMFLPTLLHQATAEQQERFFMPAWNLEITGTYAQTEMGHGTHLRGLETTATYDPKTQEFILNSPTVTSIKWWPGGLGKTSNHAIVLAQLITQGECYGLHAFVVPIREIGTHKPLPGITVGDIGPKFGYEEMDNGYLKMDNYRIPRENMLMKYAQVKPDGTYVKPLSNKLTYGTMVFVRSFLVGNAAQSLSKACTIAIRYSAVRRQSEIKQSEPEPQILDFQTQQYKLFPLLATAYAFHFVGRYMKETYLRINESIGQGDLSELPELHALTAGLKAFTTWTANAGIEECRMACGGHGYSHSSGIPNIYVTFTPACTFEGENTVMMLQTARFLMKIYDQVRSGKLVGGMVSYLNDLPSQRIQPQQVAVWPTMVDINSLEGLTEAYKLRAARLVEIAAKNLQTHVSHRKSKEVAWNLTSVDLVRASEAHCHYVVVKVFSDKLPKIQDKAVQAVLRNLCLLYSLYGISQKGGDFLEGSIITGAQLSQVNARILELLTLIRPNAVALVDAFDFKDMTLGSVLGRYDGNVYENLFEWAKKSPLNKTEVHESYHKHLKPLQSKL	soluble
MSLLFASLLKNRLRLGQLTMIDAKGQTHVLGGDGPGPRVTIRLTDPSLHRRLFLRPHLAIGEAYMEGTLIIERGGLRDFLELIGANLAAIEGSPWVALGQRLSGLMRRLQQRNPVWRSRRNVAHHYDLSGAFYDLFLDSDRQYSCAYFARDGDSLEQAQDNKKRLIAAKLMLRPGQHVLDIGCGWGGLALHLARHHDVRVTGITLSQEQAALARERVRAAGLQDRVTILLKDYRDLDGRFDRVVSVGMLEHVGAPQLADYFRHVGGLLSDDGVALIHSIGRMEPPGSTNVWIRKYIFPGGYSPALSETLAAVEGSGLYLTDAEILRLHYARTLAEWTRRFQANREAARALYDERFCRMWEFYLLGCEMAFRHGNQMVFQLQLARREGHHHHHH	soluble
MAELYDGPIVDAHHHFWDPQANYHPWLAEDAKIPFRYGDYSAIKRRYLPADYFGDVGAHRVVETVYVETEWDPRDPLGETRFVHHLAERHGAPHAVVAQAWLDAPDAAEVLAAQAGFARVRSVRHKPGGPQRPQQVGELRSLMSDERWRRGYAELARHGLHFDLQTPWWNLAEAACLARDFPDTLIVLNHAGLPSDRSEEGLAAWQRAMARFAECPNVALKISGIGQAGRRWSVEDNAWIVRESIALFGVERAMFASNFPVDSLCGSFDDIYGGFKRIVADLPYADQERLFHSNARRIYRTVPDTVRLQQASPDPRTSP	not soluble
MSQISIILPTYNVEKYIARALESCINQTFKDIEIIVVDDCGNDKSIDIAKEYASKDDRIKIIHNEENLKLLRARYEGAKVATSPYIMFLDSDDYLELNACEECIKILDMGGGGKIDLLCFEAFITNAKKSIKKLNIKQGKYNNKEFTMQILKTKNPFWTMWAKIIKKDIYLKAFNMLNLKKEIKINMAEDALLYYPLTILSNEIFYLTQPLYTQHVNSNSITNNINSLEANIQEHKIVLNVLKSIKNKKTPLYFLIIYLLKIQLLKYEQNFNKRNINLIYYKINILYQKYQFKWKKFLYNLIP	not soluble
MGSDKIHHHHHHMTTDLEQQFEFLTEIERLREVERQNLLLDGSRVENSAEHSWHLALYALVFAPYAPSDVSITRVIEMLLLHDIVEIDVGDHPIDEPTDWEAVAQAEDRAQRRIFGLLPEAQGHRLQALWQEFEAAHTADARFAKSLDYCQPIFQTLCAVSPPADHLRVVRENLTTGRATSLRERFPEAYAAACSLIDGQTVSDPDFAARLAFLSEADRLKSVLRASRIASGTRYENSAEHSWHIMLYGWILAPHSLSEVDVSRVLKMLLLHDLVEIDAGDVPIHSNLDAAALRQIEETEKAAAERIFGLLPDAQAKDCLMIWQEFEAAQSADAVFAKSIDRVQPVLLNIATGGGSWVAYDVTLPQLETRVGVKIARGAPKVWDHVRALLLPWFTAQGRL	not soluble
MAKKRSKLEIIQAILEACKSGSPKTRIMYGANLSYALTGRYIKMLMDLEIIRQEGKQYMLTKKGEELLEDIRKFNEMRKNMDQLKEKINSVLSIRQ	soluble
MSKTAIIFPGQGAQKVGMAQDLFNNNDQATEILTSAANTLDFDILETMFTDEEGKLGETENTQPALLTHSSALLAALKNLNPDFTMGHSLGEYSSLVAADVLSFEDAVKIVRKRGQLMAQAFPTGVGSMAAVLGLDFDKVDEICKSLSSDDKIIEPANINCPGQIVVSGHKALIDELVEKGKSLGAKRVMPLAVSGPFHSSLMKVIEEDFSSYINQFEWRDAKFPVVQNVNAQGETDKEVIKSNMVKQLYSPVQFINSTEWLIDQGVDHFIEIGPGKVLSGLIKKINRDVKLTSIQTLEDVKGWNEND	not soluble
MKARKAKEFVFNDLLSMESYCINHYSDYYSKSNFSCNVTQLSKGELVTSSICAPINDAHLEIFKSNQTILYEEEANQNSVAFCWINSNGEQAQTNTIISGHKMMDLSIAGFNRLNKTGGNVWDIVGANTQLCCMSLKWEKVKEKINQMNAYNAFAKLEECIGIDSNSSASIQLKSLFERHFTKGLRESEAFYDLAIATLEEPCDLEILTERSDKTELIEDLVKLLYEDREGMPPLTISEITKYLNTEKESLSIACRTNFDMPILDLIKSIRLEQVKKSYLNPHVPKGLKNFTKKQNALYYGFKNWTTFQKFYHQSFQESPDETINKSSKASVLVTDLFTRRS	not soluble
GVFTFEDEINSPVAPATLYKALVTDADNVIPKALDSFKSVENVEGNGGPGTIKKITFLEDGETKFVLHKIESIDEANLGYSYSVVGGAALPDTAEKITFDSKLVAGPNGGSAGKLTVKYETKGDAEPNQDELKTGKAKADALFKAIEAYLLAHPDYN	soluble
RGFQHGIRHNVEQFGMGTSAISFSTWRTSKEYGGYPKDRYIELTPADCDYLVKLNPDLIKGAAYYTNQWSYDVQYEDRTHSTPTKAVSGEYGNMVKTHLIEGRFLSTSDDAMKRKVIVLCEQTADVLFGESISPIGKYVNLSQIPFLVVGVCKGEQGQFSPNYIPFATYSGIFAKGFSLDCTLFMNCPSVRTEENVERLKVLLNRQLAFRKGYDPTDMEVPYVDAPVTDIKMMDKIFNGMD	not soluble
MGHHHHHHSHMWQAISRLLSEQLGEGEIELRNELPGGEVHAAWHLRYAGHDFFVKCDERELLPGFTAEADQLELLSRSKTVTVPKVWAVGADRDYSFLVMDYLPPRPLDAHSAFILGQQIARLHQWSDQPQFGLDFDNALSTTPQPNTWQRRWSTFFAEQRIGWQLELAAEKGIAFGNIDAIVEHIQQRLASHQPQPSLLHGDLWSGNCALGPDGPYIFDPACYWGDRECDLAMLPLHTEQPPQIYDGYQSVSPLPADFLERQPVYQLYTLLNRARLFGGQHLVIAQQSLDRLLAA	soluble
MEEPFEAYRSREVAMKLVEKIREEAKTLDGEIRIMHVCGTHEDTVTRHGIRSLLPENVKVVSGPGCPVCITPVEDIVAMQLIMRKAREEGEEIILTTFGDMYKIPTPMGSFADLKSEGFDVRIVYGIFDTYRIAKENPDKTVVHFSPGFETTTAPAAGMLNVAAQEELENFKIYSVHRLTPPAVEVLLKQGTVFQGLIAPGHVSTIIGVKGWEYLTEKYGIPQVVAGFEPNDVLMAILMLIRMYKEGEARIINEYERAVKYEGNVVAQKMIDKFFEVVDAKWRALGVFPKSGLELRKEWKDFEIRSFYKVEVPKNLPDLEKGCRCGAVLRGLALPTDCPLFGKTCTPRHPVGPCMVSYEGTCQIFYKYGVLF	soluble
MMKRALTGIQASGKQHLGNYLGVMQSLIELQEQCQLFVFVADLHSITVDFQPQALKQNNFDLVRTLLAVGLDPQKACLFLQSDLLEHSMMGYLMMVQSNLGELQRMTQFKAKKAEQTRNPNGTLNIPTGLLTYPALMAGDILLYQPDIVPVGNDQKQHLELTRDLAQRIQKKFKLKLRLPQFVQNKDTNRIMDLFDPTKKMSKSSKNQNGVIYLDDPKEVVVKKIRQATTDSFNKIRFAPKTQPGVTNMLTILKALLKEPVNQSLTNQLGNDLEAYFSTKSYLDLKNALTEATVNLLVNIQRKREQISREQVFNCLQAGKNQAQATARTTLALFYDGFGLGSQNIK	soluble
DRYCLTAPNYRLKSLQKKASTSAGRITVPRLSVGSVTSRPSTPTLGTPTPQTMSVSTKVGTPMSLTGQRFTVQMPTSQSPAVKASIPATSAVQNVLINPSLIGSKNILITTNMMSSQNTANESSNALKRKR	soluble
MGSDKIHHHHHHMVMMSKQLTAQAPVDPIVLGKMGSSYGIRGWLRVFSSTEDAESIFDYQPWFIQKAGQWQQVQLESWKHHNQDMIIKLKGVDDRDAANLLTNCEIVVDSSQLPQLEEGDYYWKDLMGCQVVTTEGYDLGKVVDMMETGSNDVLVIKANLKDAFGIKERLVPFLDGQVIKKVDLTTRSIEVDWDPGF	not soluble
MGSDKIHHHHHHMRKERDYLGKLEIEGEVYYGIHTKRALMNFPSTGEKLDETFIWAYFMVKKACALLNTELGYLDERTGNAIVKACDEWEDLKKHVVVDPLSGGAGTSINMNVNEVIANRATEILGGKKGEYLVDPIDHVNLHQSTNDTFPTSAKIATIVKLRRLIDEVINLQEKIQEKEKEFYSIRKPGRTQLMDGPPIMLGQEFGAFADALARDRWRLYKVEERIRSVNIGGTAIGTGVGAPKDYILKIVEKVREVTKVKIAKAENLIDATQNWDVFAEVHGLLKSLAVNLYKISNDIRLLGSGPNTVIGELILPAVQAGSSIMPGKINPVVSEYVMQICHMVFGHDMILNHACALGNLELNQFAPLIVHLTLKSLTLLTNACRSLASYISKIKANNERCEEHLRRSVSNLTPLIKLFGYEAVSEAIKKANWDIKKAVEILSQEKNIPVEEILKVLNLKKMTGLGYSL	not soluble
MGSDKIHHHHHHMSDTLIELRNIGKRFGGVRALDGVSLAIRPGEIHCLAGENGSGKSTVIKVMSGIYTPEEGEILIDGRPVGRLDPIRAVQHGVQVIYQDFSLFGNLTVAENLALNTYVLEGRRRMDWRRARTMAVEVLARLGVDIDPDAEVGTLPTSGRQVVAIARAILAKARLIIMDEPTTALTRHEVDALFAIVRDLQAQGIAVLFVSHKMREMLEISERLTVFRNGRKVAEGPMSDFDEAAITHAMTGLSLTDDPYRPTLPPGPPLLEVRKLSVPGSVQDIDLSLRPGEIVGISGLIGSGRTELARALFGMEPAMTGTLRLEGREIHPRSVQEAIALGIAYVPEDRLTEGLFLPQSIERNLVVSILERLRRGPFLDTRAVREKTLGMFRDMQIAAPSPETAVGNLSGGNAQRVMLGRWLLTGARVLILNGPTVGVDVGSKATIHRIIRDLAQREGLGVLMISDDVPELVTNCNRIHVMHRGRFVADLDGSGMTEDRINDALKTLN	not soluble
MSLKLKTLALSLLAAGVLAGCSSHSSNMANTQMKSDKIIIAHRGASGYLPEHTLESKALAFAQHSDYLEQDLAMTKDGRLVVIHDHFLDGLTDVAKKFPYRHRKDGRYYVIDFTLKEIQSLEMTENFETKDGKQAQVYPNRFPLWKSHFRIHTFEDEIEFIQGLEKSTGKKVGIYPEIKAPWFHHQNGKDIATETLKVLKKYGYDKKTDMVYLQTFDFNELKRIKTELLPQMGMDLKLVQLIAYTDWKETQEKDPKGYWVNYNYDWMFKPGAMAEVVKYADGVGPGWYMLVNKEESKPDNIVYTPLVKELAQYNVEVHPYTVRKDALPEFFTDVNQMYDALLNKSGATGVFTDFPDTGVEFLKGIKEGHHHHHH	soluble
MGSDKIHHHHHHMKSPQELRNKLFRYWRQPGLRLRQLLDQAAWPLVLSIGKPTAQVFSSQVAMVQKHVEAWREVSVGKVEWKRIGYRSGADLVSIPTQWCLRSPTEWITAMSNEEISAQYMSLEHLVEHLPAVYRRLIITRPSLWKNKRSEEVIQVAGLAQRLSPGCAQGLPLRLLSGYGVDTKFFERNELLLSKMLDVRYEGEASRQGLCDFLDAYDDTSHWVLLAPLEAGLLPFKRQLVTTSELGRASLPGTRLLIVENQKCLHLLRELPGTIAILGCGSDLAWLGSAQLHGKSIAYWGDVDTWGMRMLARARSRFNAVIPLLMTATVFDAHSDFTVPEPIRAQDTPPADLTPSETALFKRLVQCSRGRLEQEFISREVVWAALEEWIQRRRG	not soluble
